# Measured values from paper PMC10746679.
# Key:
# [1] = target: 70-kDa N-terminal FN fragment (FN70); test: solid-phase binding assay; settings: FN70 25 μg/ml coated on plate, read off a plot
# [2] = target: Full-length fibronectin (UniProt P02751); test: solid-phase binding assay; settings: FN-FL 25 μg/ml coated on plate, read off a plot
# [3] = [HSP90α] 2.5 µM (read from x axis), parent: est. 1.4
# [4] = [HSP90α] about 0.31 µM (read from x axis), parent: est. 1.1
# [5] = [HSP90α] about 0.63 µM (read from x axis), parent: est. 1.3
# [6] = [HSP90α] about 1.25 µM (read from x axis), parent: est. 1.4
# Chain of Full-length fibronectin (P02751 32-2477): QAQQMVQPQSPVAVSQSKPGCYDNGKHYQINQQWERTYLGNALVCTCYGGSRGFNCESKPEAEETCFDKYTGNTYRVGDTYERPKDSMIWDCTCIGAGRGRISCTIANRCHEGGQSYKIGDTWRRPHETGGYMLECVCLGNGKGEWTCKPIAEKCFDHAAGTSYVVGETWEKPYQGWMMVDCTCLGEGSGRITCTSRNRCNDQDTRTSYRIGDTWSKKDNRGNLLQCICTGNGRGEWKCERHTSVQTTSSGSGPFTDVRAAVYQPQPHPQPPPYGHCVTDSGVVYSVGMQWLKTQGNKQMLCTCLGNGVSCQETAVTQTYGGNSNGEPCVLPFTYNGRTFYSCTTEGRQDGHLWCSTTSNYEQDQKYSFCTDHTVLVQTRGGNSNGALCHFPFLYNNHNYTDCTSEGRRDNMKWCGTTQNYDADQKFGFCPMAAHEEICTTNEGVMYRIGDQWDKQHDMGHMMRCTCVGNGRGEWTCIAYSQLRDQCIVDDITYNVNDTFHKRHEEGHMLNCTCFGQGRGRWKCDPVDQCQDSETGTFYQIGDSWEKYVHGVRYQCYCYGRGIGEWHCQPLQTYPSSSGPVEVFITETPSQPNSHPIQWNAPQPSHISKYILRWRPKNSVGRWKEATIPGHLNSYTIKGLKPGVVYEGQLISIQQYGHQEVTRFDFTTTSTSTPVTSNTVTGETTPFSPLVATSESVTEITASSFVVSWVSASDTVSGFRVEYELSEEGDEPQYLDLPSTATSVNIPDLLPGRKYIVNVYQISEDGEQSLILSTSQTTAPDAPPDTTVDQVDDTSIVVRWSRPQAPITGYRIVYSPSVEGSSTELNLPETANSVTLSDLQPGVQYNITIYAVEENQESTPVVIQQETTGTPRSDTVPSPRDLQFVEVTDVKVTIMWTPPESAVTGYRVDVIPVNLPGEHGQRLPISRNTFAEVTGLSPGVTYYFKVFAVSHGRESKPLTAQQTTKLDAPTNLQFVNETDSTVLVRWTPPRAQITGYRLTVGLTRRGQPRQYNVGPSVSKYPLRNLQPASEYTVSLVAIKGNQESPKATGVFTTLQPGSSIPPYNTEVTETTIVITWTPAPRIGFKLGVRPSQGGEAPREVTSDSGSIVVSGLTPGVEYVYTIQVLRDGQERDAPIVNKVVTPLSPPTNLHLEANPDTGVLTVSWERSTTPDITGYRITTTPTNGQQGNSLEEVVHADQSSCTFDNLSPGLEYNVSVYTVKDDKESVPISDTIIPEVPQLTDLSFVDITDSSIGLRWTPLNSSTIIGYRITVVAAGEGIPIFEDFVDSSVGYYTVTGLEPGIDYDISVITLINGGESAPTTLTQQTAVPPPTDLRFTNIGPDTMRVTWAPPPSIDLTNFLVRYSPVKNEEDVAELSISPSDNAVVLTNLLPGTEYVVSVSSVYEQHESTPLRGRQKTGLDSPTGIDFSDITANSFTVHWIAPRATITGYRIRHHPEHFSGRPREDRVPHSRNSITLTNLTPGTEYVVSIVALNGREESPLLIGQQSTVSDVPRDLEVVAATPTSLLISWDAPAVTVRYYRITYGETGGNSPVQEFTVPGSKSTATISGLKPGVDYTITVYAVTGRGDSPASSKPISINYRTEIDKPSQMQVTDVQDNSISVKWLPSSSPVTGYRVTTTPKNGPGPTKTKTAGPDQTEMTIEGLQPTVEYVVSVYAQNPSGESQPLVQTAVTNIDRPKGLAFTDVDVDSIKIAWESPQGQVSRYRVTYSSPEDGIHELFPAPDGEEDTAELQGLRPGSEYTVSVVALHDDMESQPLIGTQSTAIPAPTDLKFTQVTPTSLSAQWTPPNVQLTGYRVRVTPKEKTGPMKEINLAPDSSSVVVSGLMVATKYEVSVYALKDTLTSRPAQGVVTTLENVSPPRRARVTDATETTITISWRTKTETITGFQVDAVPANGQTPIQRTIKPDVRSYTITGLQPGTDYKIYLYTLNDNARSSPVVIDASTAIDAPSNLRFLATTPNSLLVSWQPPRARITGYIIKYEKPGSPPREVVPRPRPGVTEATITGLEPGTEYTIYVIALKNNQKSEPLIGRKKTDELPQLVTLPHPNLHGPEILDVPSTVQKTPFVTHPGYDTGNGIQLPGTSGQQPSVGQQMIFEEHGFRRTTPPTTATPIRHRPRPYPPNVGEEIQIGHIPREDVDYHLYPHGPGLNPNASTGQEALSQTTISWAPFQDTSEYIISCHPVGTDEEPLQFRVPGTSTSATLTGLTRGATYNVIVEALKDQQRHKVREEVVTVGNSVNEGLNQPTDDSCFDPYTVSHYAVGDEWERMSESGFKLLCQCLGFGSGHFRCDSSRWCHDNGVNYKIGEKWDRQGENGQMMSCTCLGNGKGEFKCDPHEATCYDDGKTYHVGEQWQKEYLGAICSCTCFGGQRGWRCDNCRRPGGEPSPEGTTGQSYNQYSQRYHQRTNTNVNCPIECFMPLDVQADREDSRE
"response (Absorbance (450 nm)) [1, 3]","response (Absorbance (450 nm)) [1, 4]","response (Absorbance (450 nm)) [1, 5]","response (Absorbance (450 nm)) [1, 6]","response (Absorbance (450 nm)) [2, 3]","response (Absorbance (450 nm)) ([2]; [HSP90α] about 0.31 µM (read from x axis), parent: est. 1.0)","response (Absorbance (450 nm)) ([2]; [HSP90α] about 0.63 µM (read from x axis), parent: est. 1.25)","response (Absorbance (450 nm)) ([2]; [HSP90α] about 1.25 µM (read from x axis), parent: est. 1.2)",Substance
1.1,0.82,0.93,1.1,,,,,Recombinant full-length wild type His-HSP90α (from UniProt P07900) Y528A
1.1,0.72,0.83,0.99,,,,,Recombinant full-length wild type His-HSP90α (from UniProt P07900) F352A; Y528A
,,,,0.53,0.36,0.45,0.44,"Recombinant full-length wild type His-HSP90α, P07900 F352A; Y528A"
